Biological target: T1, YFP-DAT, Q01959
T1 chain: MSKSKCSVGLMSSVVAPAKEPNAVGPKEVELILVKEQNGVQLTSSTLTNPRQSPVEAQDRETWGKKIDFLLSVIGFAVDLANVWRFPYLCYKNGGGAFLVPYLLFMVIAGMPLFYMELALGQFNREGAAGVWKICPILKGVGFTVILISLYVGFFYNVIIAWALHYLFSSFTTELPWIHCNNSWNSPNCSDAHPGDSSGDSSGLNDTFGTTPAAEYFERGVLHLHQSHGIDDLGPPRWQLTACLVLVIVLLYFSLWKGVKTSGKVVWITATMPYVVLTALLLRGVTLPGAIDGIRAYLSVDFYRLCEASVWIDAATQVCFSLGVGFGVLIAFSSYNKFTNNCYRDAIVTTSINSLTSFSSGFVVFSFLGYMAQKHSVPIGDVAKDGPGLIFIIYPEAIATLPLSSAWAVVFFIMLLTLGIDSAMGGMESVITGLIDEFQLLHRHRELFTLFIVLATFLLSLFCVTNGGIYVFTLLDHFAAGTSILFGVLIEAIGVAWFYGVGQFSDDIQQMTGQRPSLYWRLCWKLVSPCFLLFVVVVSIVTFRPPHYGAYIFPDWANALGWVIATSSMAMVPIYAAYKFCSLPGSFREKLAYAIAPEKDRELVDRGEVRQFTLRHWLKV
Test: FRET or BRET; CFP- and YFP-labelled proteins co-expressed in HEK293 cells; three-filter method, 63x oil immersion objective; FRET efficiency, n = 20-30 per group
Conditions: remark: other sources report otherwise

B1: CFP-Flot1, O75955 1-427 (natural protein)
chain: MFFTCGPNEAMVVSGFCRSPPVMVAGGRVFVLPCIQQIQRISLNTLTLNVKSEKVYTRHGVPISVTGIAQVKIQGQNKEMLAAACQMFLGKTEAEIAHIALETLEGHQRAIMAHMTVEEIYKDRQKFSEQVFKVASSDLVNMGISVVSYTLKDIHDDQDYLHSLGKARTAQVQKDARIGEAEAKRDAGIREAKAKQEKVSAQYLSEIEMAKAQRDYELKKAAYDIEVNTRRAQADLAYQLQVAKTKQQIEEQRVQVQVVERAQQVAVQEQEIARREKELEARVRKPAEAERYKLERLAEAEKSQLIMQAEAEAASVRMRGEAEAFAIGARARAEAEQMAKKAEAFQLYQEAAQLDMLLEKLPQVAEEISGPLTSANKITLVSSGSGTMGAAKVTGEVLDILTRLPESVERLTGVSISQVNHKPLRTA
  FRET efficiency: 7.62

From paper PMC6392109
